Earlier results, collected in PMC7017177.

Target: CTLA-4 (Homo sapiens) (UniProt P16410)
Sequence of UniProt P16410 (P16410 36-161): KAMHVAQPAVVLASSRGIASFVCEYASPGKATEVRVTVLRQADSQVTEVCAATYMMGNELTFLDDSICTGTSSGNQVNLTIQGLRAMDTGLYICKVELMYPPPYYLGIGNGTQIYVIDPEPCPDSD

Kd: 0.28 nM
Substance: Tremelimumab
